This note sets out measurements from paper doi:10.1101/459487 (bioRxiv, 2018).

For test [1], the target named is full-length GST-EFCAB9 (mouse) (mouse, UniProt Q9DAM2 1-216). The test is described as follows: pull-down.
The target in test [2] is GST-EFCAB9^Mut2 (D72N/E160Q) (mouse, UniProt Q9DAM2 1-216, D72N | E160Q). The test is described as follows: pull-down.
Chain of GST-EFCAB9^Mut2 (D72N/E160Q) (Q9DAM2 whole entry D72N/E160Q): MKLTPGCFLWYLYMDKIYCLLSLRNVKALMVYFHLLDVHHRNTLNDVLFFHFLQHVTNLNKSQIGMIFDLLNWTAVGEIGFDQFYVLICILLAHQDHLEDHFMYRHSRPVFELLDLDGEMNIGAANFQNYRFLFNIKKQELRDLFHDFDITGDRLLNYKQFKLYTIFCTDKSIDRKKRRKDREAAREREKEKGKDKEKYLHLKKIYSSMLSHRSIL

Chain of full-length GST-EFCAB9 (mouse) (Q9DAM2 whole entry): as the sequence (Q9DAM2 whole entry D72N/E160Q) above, with N72D, Q160E counted along it

B1: 6xHis-tagged mouse CatSperζ fused to GB1 (natural protein)
chain: MEESVKPVPKHANHRRSSVRSSLYGDVRDLWSTATMSTANVSVSDVCEDFDEEGKSVRNRIRKYSQTISIRDSLNLEPEEIQQQARRELELCHGRSLEHGEDHEESETSLASSTSESLIFSLWKPHRTYWTEQQNRLPLPLMELMETEVLDILKKALITYRSTIGRNHFMTKELQGYIEGIRKRRNKRLYFLDQ
For B1, the binding result in test [1] and in test [2] was “binds” each time.
